The series relates to CC(=O)N[C@H]1[C@@H](OP(=O)(O)OP(=O)(O)OC[C@H]2O[C@@H](n3ccc(=O)[nH]c3=O)[C@H](O)[C@@H]2O)O[C@H](C)[C@H](O)[C@@H]1O. In words: purified protein. The conditions noted are these: Mg2+.

Take “CapM (Staphylococcus aureus subsp. aureus USA300)”: the Km is listed as 2,309 ± 311.8 µM.
